Measurements published in patent US20180016614.

Columns and labels:
[1] = tested on: His-tagged double mutant T7 RNA polymerase K183G, K190L expressed by C321.ΔA.759.T7.D
[2] = tested on: N-terminally 6-His-tagged T7 RNA polymerase (wild type) expressed by C321.ΔA.759.T7

Outer membrane protease VII (OmpT)
proteolytic cleavage of double mutant T7RNAP in lysate (α-His western blot) [1]: the double mutant T7RNAP expressed by C321.ΔA.759.T7.D is not cleaved despite the presence of active OmpT in the cellular lysate | proteolytic cleavage of T7RNAP during lysate preparation (α-His western blot) [2]: the T7RNAP produced by the strain is cleaved near the N-terminus to yield a ˜21 kDa fragment | proteolytic cleavage of T7RNAP in lysate of the ompT knockout strain (α-His western blot) [2]: a Western blot revealed that in the absence of OmpT the T7RNAP is no longer cleaved
